Biological target: T1, MBP-SOA(1-331), myb+BTB (Anopheles gambiae, UniProt Q7Q6N8 1-331)
T1 sequence: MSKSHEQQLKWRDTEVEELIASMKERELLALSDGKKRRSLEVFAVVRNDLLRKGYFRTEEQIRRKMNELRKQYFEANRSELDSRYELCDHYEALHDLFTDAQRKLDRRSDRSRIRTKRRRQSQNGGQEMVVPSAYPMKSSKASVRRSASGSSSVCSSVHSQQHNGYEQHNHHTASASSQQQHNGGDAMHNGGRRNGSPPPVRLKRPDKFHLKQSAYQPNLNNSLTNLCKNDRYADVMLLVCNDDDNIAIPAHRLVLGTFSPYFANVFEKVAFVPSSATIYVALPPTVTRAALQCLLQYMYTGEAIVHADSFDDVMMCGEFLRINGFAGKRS
Assay: fluorescence polarization; FP: 10 mM Na-HEPES pH 7.4, 150 mM NaCl, 1 mM TCEP, 0.1 g/l BSA, 5% glycerol, 0.05% Triton X-100, 5 nM DNA, 20 C; EMSA: 20 mM HEPES-KOH pH 7.5, 100 mM KCl, 0.05% NP-40, room temperature
Settings: protein: recombinant; tags: N-terminal His6-MBP; label: Cy5 on one strand; blunt

B1: CA10 dsDNA 20mer (dsDNA)
DNA 1: CACACACACACACACACACA
DNA 2: TGTGTGTGTGTGTGTGTGTG
Work on B1 yielded a Kd of 40 nM.

From article PMC10620080, “The sex-specific factor SOA controls dosage compensation in Anopheles mosquitoes”
